{"source": "paper PMC4898653", "about": "(2017)", "binders": {"B1": {"name": "APPI Kunitz domain (protein)", "chain": "VREVCSEQAETGPCRAMISRWYFDVTEGKCAPFFYGGCGGNRNNFDTEEYCMAVCGSA"}}, "key": {"[1]": {"target": "T1, mesotrypsin (Homo sapiens, UniProt P35030)", "T1 chain": "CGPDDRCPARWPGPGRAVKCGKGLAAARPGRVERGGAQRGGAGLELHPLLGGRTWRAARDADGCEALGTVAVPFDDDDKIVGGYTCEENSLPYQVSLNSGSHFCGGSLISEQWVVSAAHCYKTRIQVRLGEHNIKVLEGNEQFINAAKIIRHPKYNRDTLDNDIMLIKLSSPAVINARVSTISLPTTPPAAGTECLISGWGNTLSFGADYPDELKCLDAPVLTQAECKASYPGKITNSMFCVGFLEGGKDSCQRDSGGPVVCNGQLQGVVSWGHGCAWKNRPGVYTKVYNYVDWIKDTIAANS", "assay": "competitive inhibition of Z-GPR-pNA cleavage"}, "[2]": {"target": "kallikrein-6 (Homo sapiens, UniProt Q92876)", "assay": "enzyme inhibition"}, "[3]": {"target": "T2, anionic trypsin (Homo sapiens, UniProt P07478)", "T2 chain": "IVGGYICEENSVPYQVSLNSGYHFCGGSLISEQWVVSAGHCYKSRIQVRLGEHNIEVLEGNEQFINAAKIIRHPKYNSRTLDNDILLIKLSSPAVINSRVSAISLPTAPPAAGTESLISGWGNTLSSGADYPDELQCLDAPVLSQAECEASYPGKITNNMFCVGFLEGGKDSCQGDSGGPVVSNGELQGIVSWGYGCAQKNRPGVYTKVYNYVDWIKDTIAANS", "assay": "enzyme inhibition"}, "[4]": {"target": "factor XIa (Homo sapiens, UniProt P03951)", "sequence (P03951 388-625)": "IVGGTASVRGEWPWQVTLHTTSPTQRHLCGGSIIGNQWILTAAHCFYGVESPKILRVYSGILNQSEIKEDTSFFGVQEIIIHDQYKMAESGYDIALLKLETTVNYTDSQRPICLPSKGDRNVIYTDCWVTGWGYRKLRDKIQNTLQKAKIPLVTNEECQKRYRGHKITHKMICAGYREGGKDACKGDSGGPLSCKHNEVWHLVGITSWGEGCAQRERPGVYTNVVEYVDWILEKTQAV", "assay": "enzyme inhibition"}, "[5]": {"target": "cationic trypsin (Homo sapiens, UniProt P07477)", "assay": "enzyme inhibition"}}}
{"binder": "B1", "values": [{"measurement": "Ki", "setting": "[1]", "result": 131, "unit": "nM"}, {"measurement": "Ki", "setting": "[2]", "result": 2.23, "unit": "nM"}, {"measurement": "Ki", "setting": "[3]", "result": 0.00174, "unit": "nM"}, {"measurement": "Ki", "setting": "[4]", "result": 0.41, "unit": "nM"}, {"measurement": "Ki", "setting": "[5]", "result": 0.00627, "unit": "nM"}]}
